The record followed here is US20220119517A1 (NANJING SANHOME PHARMACEUTICAL, published 2022).

Numbering of substitutions follows the chain as printed.

B1: 304CHI (antibody, V domains shown)
VH: EVKLVESGGGLVQPGGSLKLSCAASGFGFSDYGMAWVRQAPRKGPEWVAFISNSAYSIYYADTVTGRFTISRENAKNTLYLEMSSLRSEDTAMYYCARLGYGNSFAYWGQGTLVTVSA
VL: DIVMTQSPSSLTVTAGEKVTMSCKSSQSLLNSGNQKNYLTWYQQKPGQPPKLLIYWASTREPGVPDRFTGSGSGTDFTLTISSVQAEDLAVYYCQNDYSYPLTFGAGTKLELK
notes: chimeric with the constant region of human IgG1
B2: 302CHI (antibody, V domains shown)
VH: B1 VH with G28T, S54L
VL: B1 VL with P62S, Y100L, L102F
notes: as for B1
B3: 308CHI (antibody, V domains shown)
VH: B1 VH
VL: B1 VL with P62S, Y100L, L102F
notes: as for B1
B4: 319CHI (antibody, V domains shown)
VH: B1 VH with Y101R
VL: B1 VL with P62S, D97N, S99Y
notes: as for B1
B5: 306CHI (antibody, V domains shown)
VH: B1 VH with G28T, S54L, Y101R
VL: B1 VL with P62S, Y100F
notes: as for B1
B6: 307CHI (antibody, V domains shown)
VH: B1 VH
VL: B1 VL with P62S, D97N, S99Y
notes: as for B1
B7: 328CHI (antibody, human IgG1, V domains shown)
VH: B1 VH with Y101R
VL: B1 VL with A57G, P62S, D97N, S99Y
notes: as for B1
B8: 313CHI (antibody, V domains shown)
VH: B1 VH with G28T, S54L, Y101R
VL: B1 VL with P62S, D97N, S99Y
notes: as for B1
B9: 312CHI (antibody, human IgG1, V domains shown)
VH: B1 VH with G28T, D31R, R42G
VL: B1 VL with P62S, D97E, Y98L, S99F
notes: as for B1
B10: 305CHI (antibody, human IgG1, V domains shown)
VH: B1 VH with G28T, S54L
VL: B1 VL with P62S, D97E, Y98L, S99F
notes: as for B1
B11: 303CHI (antibody, V domains shown)
VH: B1 VH with G28T, D31R, R42G
VL: B1 VL with A57G, P62S
notes: as for B1
B12: 324CHI (antibody, human IgG1, V domains shown)
VH: B1 VH with G28T, S54L
VL: B1 VL with A57G, P62S, D97E, Y98L, S99F
notes: as for B1
B13: 301CHI (antibody, V domains shown)
VH: B1 VH with G28T, S54L
VL: B1 VL with P62S, D97N, S99Y
notes: as for B1
B14: 321CHI (antibody, human IgG1, V domains shown)
VH: B1 VH with Y101R
VL: B1 VL with P62S, D97E, Y98L, S99F
notes: as for B1
B15: 315CHI (antibody, human IgG1, V domains shown)
VH: B1 VH with G28T, S54L, Y101R
VL: B1 VL with P62S, D97E, Y98L, S99F
notes: as for B1
B16: 322CHI (antibody, human IgG1, V domains shown)
VH: B1 VH with G28T, S54L
VL: B1 VL with A57G, P62S, D97N, S99Y
notes: as for B1
B17: 309CHI (antibody, human IgG1, V domains shown)
VH: B1 VH
VL: B1 VL with P62S, D97E, Y98L, S99F
notes: as for B1
B18: Hu330-2 (antibody, V domains shown)
VH: EVQLVESGGGLVQPGGSLRLSCAASGFGFSDYGMAWVRQAPGKGLEWVSFISNSAYSIYYADTVTGRFTISRDNAKNSLYLQMNSLRAEDTAVYYCARLGRGNSFAYWGQGTLVTVSS
VL: EIVMTQSPPTLSLSPGERVTLSCKSSQSLLNSGNQKNYLTWYQQKPGQAPRLLIYWGSTRESSIPARFSGSGSGTDFTLTISSLQPEDLAVYYCQNELFYPLTFGQGTKLEIK
B19: 5M (antibody, human IgG1, kappa)
heavy: QVQLQQPGAELVRPGASVKLSCKASGYTFTSYWINWVKQRPGQGLEWIGNIYPSDSYTNYNQKFKDKATLTVDKSSSTAYMQLSSPTSEDSAVYYCTRSWRGNSFDYWGQGTTLTVSSASTKGPSVFPLAPSSKSTSGGTAALGCLVKDYFPEPVTVSWNSGALTSGVHTFPAVLQSSGLYSLSSVVTVPSSSLGTQTYICNVNHKPSNTKVDKKVEPKSCDKTHTCPPCPAPELLGGPSVFLLPPKPKDTLMISRTPEVTCVVVDVSHEDPEVKFNWYVDGVEVHNAKTKPPEEQYNSTLRVVSILTVLHQDWLNGKEYKCKVSNKALPAPIEKTISKAKGQPREPQVYTLPPSRDELTKNQVSLTCLVKGFYPSDIAVEWESNGQPENNYKTTPLVLDSDGSFFLYSKLTVDKSRWQQGNVFSCSVMHEALHNHYTQKSLSLSPGK
light: DIVMTQSPSSLTVTAGEKVTMSCKSSQSLLNSGNQKNYLTWYQQKPGQPPKLLIYWASTRESGVPDRFTGSGSGTDFTLTISSVQAEDLAVYYCQNDYSYPFTFGSGTKLEIKRTVAAPSVFIFPPSDEQLKSGTASVVCLLNNFYPREAKVQWKVDNALQSGNSQESVTEQDSKDSTYSLSSTLTLSKADYEKHKVYACEVTHQGLSSPVTKSFNRGEC

One test addresses T1, human Claudin18.2 (CLDN18.2), full length, on cells (human).
T1 construct: also called CLDN18.2-FL; HEK293-CLDN18.2 cells
In words: cellular ELISA.
On to B1, for which the binding result is on record as “binds”.

In the case of B2, the binding result is “binds”.

Take B3: the binding result is recorded as “binds”.

In the case of B4, the binding result is recorded as “binds”.

Turning to B5, the binding result is “binds”.

Consider B6, for which the binding result is “binds”.

As for B7, the binding result is listed as “binds”.

On to B8, for which the binding result is given as “binds”.

Take B9: the binding result is “binds”.

Another test has as its target T2, human Claudin18.1 (CLDN18.1), full length, on cells (human, UniProt P56856 1-261).
T2 construct: HEK293-CLDN18.1 cells carry a fusion with green fluorescent protein (ZsGreen); CHO-K1-CLDN18.1 cells carry pcDNA3.1-CLDN18.1; The cell line is named under assay; also called CLDN18.1-FL; HEK293-CLDN18.1 cells
In words: cellular ELISA.
As for B10, the binding result is recorded as “no binding”.

As for B1, the binding result is given as “no binding”.

In the case of B2, the binding result is given as “no binding”.

As to B11, the binding result was “no binding”.

For B12, the binding result was “no binding”.

As for B13, the binding result is recorded as “no binding”.

Turning to B14, the binding result was “no binding”.

As to B3, the binding result is “no binding”.

In the case of B4, the binding result is recorded as “no binding”.

Turning to B5, the binding result is “no binding”.

As for B15, the binding result is recorded as “no binding”.

For the molecule B16, the binding result was “no binding”.

Turning to B17, the binding result is listed as “no binding”.

Turning to B6, the binding result is listed as “no binding”.

Take B7: the binding result is “no binding”.

Regarding B8, the binding result is “no binding”.

In the case of B9, the binding result was “no binding”.

The target in the next test is T1, human Claudin18.2 (CLDN18.2), full …. The test is described as follows: FACS on NUGC4 cells. An excerpt: (§1) Human gastric cancer cells NUGC4 and stably transfected cells CHO-K1-CLDN18.1 (prepared in Example 5) were used respectively, to verify the specificity and affinity of the anti-CLDN18.2 antibodies above at the cellular level by FAGS technology. After antibody affinity maturation and screening in vitro, each antibody can bind to the CLDN18.2 target on NUGC4 cells, but not to CHO-K1-CLDN18.1 cells, as compared with the original 3CHI antibody.
On to B10, for which the “MFI (CLDN18.2)” value is 38900 MFI.

As to B11, the “MFI (CLDN18.2)” value is 38200 MFI.

As for B12, the “MFI (CLDN18.2)” value is 36000 MFI.

B13: the “MFI (CLDN18.2)” value worked out at 44400 MFI.

B14: the “MFI (CLDN18.2)” value worked out at 46300 MFI.

In the case of B15, the “MFI (CLDN18.2)” value was determined as 42300 MFI.

B16: the “MFI (CLDN18.2)” value amounted to 44800 MFI.

In the case of B17, the “MFI (CLDN18.2)” value was determined as 42500 MFI.

For the next test the target is unchanged. In words: cell-based or functional assay.
Turning to B10, the “in-vitro ADCC activity, Jurkat-CD16A/NF luciferase reporter, EC50” value was determined as 0.28 nM and the “in-vitro ADCC activity, Jurkat-CD16A/NF luciferase reporter, Top” value was 216000.

Another test shares this target. In words: cell-based or functional assay. This is another data set of the same source.
With B18, the “ADCC activity by luciferase labeling, EC50” value turned out to be 0.11 nM and the “ADCC activity by luciferase labeling, Top” value turned out to be 65100.

For the next test the target is unchanged. In words: cell-based or functional assay. This is another data set of the same source.
Regarding B19, the “ADCC activity by luciferase labeling, EC50” value was found to be 0.44 nM and the “ADCC activity by luciferase labeling, Top” value is 98400.

In the next test the target is T2, human Claudin18.1 (CLDN18.1), full …. In words: FACS on CHO-K1-CLDN18.1 cells.
Source text: as §1
Take B10: the “MFI (CLDN18.1)” value came out at 68 MFI.

B11: the “MFI (CLDN18.1)” value stood at 85 MFI.

As to B12, the “MFI (CLDN18.1)” value turned out to be 248 MFI.

Turning to B13, the “MFI (CLDN18.1)” value stood at 114 MFI.

With B14, the “MFI (CLDN18.1)” value worked out at 299 MFI.

With B15, the “MFI (CLDN18.1)” value was 65 MFI.

Regarding B16, the “MFI (CLDN18.1)” value stood at 57 MFI.

B17: the “MFI (CLDN18.1)” value was 78 MFI.

The target in a further test is T3, antigen protein Claudin18.2-His (human, UniProt P56856-2 1-261, limits assumed).
T3 construct: also called CLDN18.2 protein
The test is described as follows: BLI (Fortebio Octet RED96), antibody on AHC sensor, Claudin18.2-His in solution, 37 °C. How it is done: Next, antibodies were immobilized by the AHC sensor, and then combined with different concentrations of antigens, and determination of the affinity was performed according to the manual of Octet RED96.
On to B10, for which the Kd (as a rule, a measure of binding affinity in units of concentration) is 0.865 nM; the koff (commonly the first-order rate constant of dissociation) came out at 4.44e-05 s⁻¹; the kon (in general, the second-order rate constant of association) was 51300 M⁻¹ s⁻¹.
